The text below walks through data of the supplement of paper PMC10126150.

± gives the standard deviation of the averaged measurements.
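Note: ATP exposure 15 min at 22 °C before imaging.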

For this data set, the system named is ATP. The experiment in a line: switch fluorescence ratio, 500 uM ATP over buffer (Cy3 cluster intensity, sum of 5 cycles each) (fold (ratio)); higher = stronger signal-on switching upon ATP binding; sequences stand for … in TCGTCGGCAGCGTCAGATGTGTATAAGAGACAGTTTTTTTTTTTTTTTTTTTTTTTTT…TC. Conditions: aptamer strand: ATP DNA aptamer (quencher-CACCTGGGGGAGTATTGCGGAGGAAGG + anchor), 100 nM annealed; ATP concentration: 500 uM. The method, boiled down: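 Clusters carrying Cy3-labelled switching strands on a modified Illumina MiSeq flow-cell were annealed to 100 nM quencher-labelled ATP aptamer and imaged in selection buffer. They were imaged again after 15 min with 500 uM ATP at 22 °C, over five buffer/ATP cycles with NaOH stripping and re-annealing in between. For each cluster, the fluorescence ratio is the summed Cy3 intensity of the target cycles divided by that of the buffer cycles, averaged per switch-domain sequence. Clusters outside 100-1000 RFU were left out.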
CATTGATTTT: the switch fluorescence ratio was found to be 1.013 ± 0.0022.

For TAGGGGAGC, the switch fluorescence ratio is 1.01 ± 0.045. With CTATGAATTT the figure was 0.995 ± 0.011; with CCAGTTCGGA, 0.981 ± 0.059; with TTGGGTTATT, 0.979 ± 0.029.

Regarding ATGGAAGGGA, the switch fluorescence ratio is 1.15 ± 0.21. To TTTTTAGATT belongs 1.02 ± 0.031. With AGAGACTGAG the figure was 1.045 ± 0.0026.

For the sequence GTGGTCGAGA, the switch fluorescence ratio was determined as 0.986 ± 0.033.

On to GGCAAATCGG, for which the switch fluorescence ratio stood at 0.995 ± 0.014. To AGGCAGGGGA belongs 1.03 ± 0.025; to TCCGGGGTCG, 1.034 ± 0.0062; to TTGGAAAGTG, 1.05 ± 0.13. Consider CAAAGTTCGC, for which the switch fluorescence ratio worked out at 0.9838 ± 0.0076. To CACGGTCTAA belongs 1.03 ± 0.043. Regarding CCTGGAAAGT, the switch fluorescence ratio amounted to 0.985 ± 0.0074. As to GGTTGATCCG, the switch fluorescence ratio came out at 1.01 ± 0.0092. With GGTACTATCG the figure was 0.961 ± 0.071; with GGGGGGTCCA, 1.01 ± 0.023. To CCGTTAGGCG belongs 0.987 ± 0.029; to AAAGGCCTTA, 1.01 ± 0.045; to TTGAGGTTTG, 1.03 ± 0.019. With TACAGCTGTG the figure was 0.9865 ± 0.0083. In the case of TCGTGGCGGA, the switch fluorescence ratio worked out at 0.979 ± 0.011. With GATGTGGGGG the figure was 0.99 ± 0.028.
